T1: peptide 6 (TIRC7 derived peptide DLPDASVNGWSSDE)
T1 construct: Fragment of TIRC7, used coated on ELISA plates at 100 ng peptide/well; also called Peptid6
T1 peptide: DLPDASVNGWSSDE


Experiments:
[1] = target: T1, peptide 6 (TIRC7 derived peptide …); assay: method not stated
[2] = target: human T-cell immune response cDNA 7 (TIRC7) protein (human, UniProt Q13488 1-830); assay: cell-based or functional assay
Sequence of human T-cell immune response cDNA 7 (TIRC7) protein (Q13488 whole entry): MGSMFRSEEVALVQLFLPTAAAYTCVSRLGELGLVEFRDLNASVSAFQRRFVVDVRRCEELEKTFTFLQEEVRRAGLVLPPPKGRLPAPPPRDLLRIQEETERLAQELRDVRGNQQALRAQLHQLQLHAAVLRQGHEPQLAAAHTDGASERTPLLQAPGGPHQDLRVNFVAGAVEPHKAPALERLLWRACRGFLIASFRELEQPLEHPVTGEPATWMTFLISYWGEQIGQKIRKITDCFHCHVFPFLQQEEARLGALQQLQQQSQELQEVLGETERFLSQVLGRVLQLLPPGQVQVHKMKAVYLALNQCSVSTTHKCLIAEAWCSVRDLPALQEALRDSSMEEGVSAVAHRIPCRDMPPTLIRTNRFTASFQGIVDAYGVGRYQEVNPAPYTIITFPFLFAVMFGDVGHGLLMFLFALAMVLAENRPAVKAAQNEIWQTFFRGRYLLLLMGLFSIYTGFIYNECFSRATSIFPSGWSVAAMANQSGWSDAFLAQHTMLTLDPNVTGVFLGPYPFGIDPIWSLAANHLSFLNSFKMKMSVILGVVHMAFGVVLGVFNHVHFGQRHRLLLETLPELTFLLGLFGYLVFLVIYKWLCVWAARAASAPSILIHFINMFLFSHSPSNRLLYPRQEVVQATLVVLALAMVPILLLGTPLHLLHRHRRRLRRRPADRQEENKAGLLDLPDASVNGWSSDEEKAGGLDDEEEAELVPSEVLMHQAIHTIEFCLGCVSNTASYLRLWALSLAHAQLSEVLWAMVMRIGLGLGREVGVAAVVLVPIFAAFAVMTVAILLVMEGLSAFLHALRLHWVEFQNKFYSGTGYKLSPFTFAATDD

Row | Kd [1] | Inhibition of cytokine secretion (IFNγ) calculated relative to the isotype control at the same concentration, PHA-stimulated human PBMC, 10 µg/ml murine Neliximab [2] | Inhibition of cytokine secretion (IFNγ) calculated relative to the isotype control at the same concentration, PHA-stimulated human PBMC, 50 µg/ml murine Neliximab [2] | Inhibition of cytokine secretion (IFNγ) calculated relative to the isotype control at the same concentration, PHA-stimulated human PBMC, 100 µg/ml murine Neliximab [2] | Inhibition of cytokine secretion (IFNγ) calculated relative to the isotype control at the same concentration, PHA-stimulated human PBMC, 200 µg/ml murine Neliximab [2] | Binder
1 | 1 nM | 78% | 39% | 20% | 3% | murine Neliximab (murine anti-human TIRC7 monoclonal antibody, clone #17) (antibody, V domains shown, also called murine anti-human TIRC7 mAb; murine mAb) VH: EVQLQQSGPELVKPGASVKMSCKASGYTFTTYVMHWVKQKPGQGLEWIGYINPYNDGTNYNEKFKGKATLTSDKSSSTAYMELSTLTSEDSAVYYCAEFITKTVGGSNWYLDVWGAGTTVTVSS VL: QIVLTQSPAIMSASPGEKVTMTCSASSSISYIHWFQQKPGTSPKRWIYDTSKLPSGVPARFSGSGSGTSYSLTISSMEAEDAATYYCHQRSSYTWTFGGGTKLEIKR
2 | 1 nM | – | – | – | – | Neliximab (chimeric murine/human anti-human TIRC7 monoclonal antibody) (antibody, V domains shown, also called chimeric Neliximab; chimeric anti-human TIRC7 mAb) VH: EVQLQQSGPELVKPGASVKMSCKASGYTFTTYVMHWVKQKPGQGLEWIGYINPYNDGTNYNEKFKGKATLTSDKSSSTAYMELSTLTSEDSAVYYCAEFITKTVGGSNWYLDVWGAGTTVTVSS VL: QIVLTQSPAIMSASPGEKVTMTCSASSSISYIHWFQQKPGTSPKRWIYDTSKLPSGVPARFSGSGSGTSYSLTISSMEAEDAATYYCHQRSSYTWTFGGGTKLEIK

From US20060251646A1 (CELLACT PHARMA, published 2006)
